Patent publication US20240084017A1 (ASCENDO BIOTECHNOLOGY, published 2024)
Positions count from the first letter of the chain named.

B1: anti-Mac-1 antibody clone 25A04 (antibody, human IgG4, V domains shown)
VH: EVQLVESGGGLVQPGGSLRLSCAASGFTFSFTAMHWVRQAPGKGLEWVSAIIYNGSEADYADSVKGRFTISRDNSKNTLYLQMNSLRAEDTAVYYCARANDYDHGCCDNYAMDYWGQGTLVTVSS
VL: DIQMTQSPSSLSASVGDRVTITCRASQGIGSYLYWYQQKPGKAPKLLIYDASNLQSGVPSRFSGSGSGTDFTLTISSLQPEDFATYYCMQHGGWPLTFGQGTKVEIK
B2: anti-Mac-1 antibody clone DF4M-31 (antibody, human IgG4, V domains shown)
VH: EVQLVESGGGLVQPGGSLRLSCAASGFTFTSATMSWVRQAPGKGLEWVSIISPGGSETYYADSVKGRFTISRDNSKNTLYLQMNSLRAEDTAVYYCARGGDYPSYYMDPWGQGTLVTVSS
VL: DIQMTQSPSSLSASVGDRVTITCRASQSISNYLAWYQQKPGKAPKLLIYGTSSLQSGVPSRFSGSGSGTDFTLTISSLQPEDFATYYCQQGHQWPWTFGQGTKVEIK
B3: anti-Mac-1 antibody clone DF4-22 (antibody, human IgG4, V domains shown)
VH: EVQLVESGGGLVQPGGSLRLSCAASGFTFTDYNVHWVRQAPGKGLEWVSGINSSGSETNYADSVKGRFTISRDNSKNTLYLQMNSLRAEDTAVYYCARDSVFKTVGGYDAVMDYWGQGTLVTVSS
VL: B2 VL with S30Y, S53T, Q89M, G91S, H92Y, Q93S, W94S, W96T
B4: anti-Mac-1 antibody clone 25A06 (antibody, human IgG4, V domains shown)
VH: EVQLVESGGGLVQPGGSLRLSCAASGFTFSSYYMSWVRQAPGKGLEWVSTINYDGSEKDYADSVKGRFTISRDNSKNTLYLQMNSLRAEDTAVYYCARDRLGNYPWFDVWGQGTLVTVSS
VL: B2 VL with G50D, T51A, S52N, S53N, G91S, H92Y, Q93S, W96L
B5: anti-Mac-1 antibody clone 24H01 (antibody, human IgG4, V domains shown)
VH: EVQLVESGGGLVQPGGSLRLSCAASGFTFNNYYMSWVRQAPGKGLEWVSIIYYDGSEADYADSVKGRFTISRDNSKNTLYLQMNSLRAEDTAVYYCARNKDIYSVYGMDYWGQGTLVTVSS
VL: B2 VL with G50A, S53N, G91A, H92N, Q93N, W94T, W96P
B6: anti-Mac-1 antibody clone 27D06 (antibody, human IgG4, V domains shown)
VH: QVKLQESGAEVVKPGASVKISCKASGYSFTDYNMNWVKQSNGKSLEWIGVINPNYGTTSYNQKFKGKATLTVDQSSSTAYMQLNSLTSEDSAVYYCARTYDYDGDAFAYWGQGTTVTVSS
VL: DIELTQSPALMSASPGEKVTMTCRASSSVSSNNLHWYQQKSGASPKLWIYSTSNLATGAPARFSGSGSGTSYSLTISSMEAEDAATYYCQQWNSNPPTFGGGTKLEIK

Biological target: T1, human Mac-1 (integrin αMβ2, CD11b/CD18) (human, UniProt P11215 17-1152; P05107 23-769)
Assay: flow cytometry, HEK293/Mac-1 cells, PBS (Mock), 10 µg/ml of this antibody; binding of reporter mAb m24 read
Protocol: (§1) The HEK293/Mac-1 cells (clone1-4) were counted and washed twice with staining buffer (PBS containing 1% FBS, and 0.1% sodium azide). Cells were adjusted at a concentration of 1×10⁵ cells/ml in staining buffer and treated with/without 0.25 mM MnCl₂ (Sigma). Cells were treated with anti-Mac-1 antibodies and fluorescent conjugated anti-human IgG4 antibodies and incubated for 15 mins. After washing with the staining buffer, the cells were analyzed by flow cytometry. In some examples, these cells were treated with the antibodies (ICRF44, KIM127, m24, or isotype control) in the presence or absence 10 μg/ml anti-Mac-1 antibodies. The cells were then incubated at 37° C. for 30 min. After washing with the staining buffer, the cells were analyzed by flow cytometry.
(§2) TABLE III The anti-Mac-1 antibodies can serve as agonist to enhance the conformational change of Mac-1. HEK293/Mac-1 cells (clone1-4) were incubated with 10 μg/ml anti-Mac-1 antibodies under the PBS (Mock) condition. Binding of KIM127 or m24 was detected using flow cytometry.

m24 (Expression relative to IgG4)	Binder
9.33 relative to IgG4	B1
3.77 relative to IgG4	B2
15.7 relative to IgG4	B3
16.8 relative to IgG4	B4
1.92 relative to IgG4	B5
1.2 relative to IgG4	B6

Biological target: T1, human Mac-1 (integrin αMβ2, CD11b/CD18)
Assay: flow cytometry, HEK293/Mac-1 cells, PBS/MnCl2 (Mn2+), 10 µg/ml of this antibody; binding of reporter mAb KIM127 read
Protocol: as §1
(§3) TABLE IV The anti-Mac-1 antibody can serve as an antagonist to reduce the conformational change of Mac-1. HEK293/Mac-1 cells (clone1-4) were incubated with 10 μg/ml anti-Mac-1 antibodies under the PBS/MnCl₂ (Mn²⁺) condition. Binding of KIM127 or m24 was detected using flow cytometry.

KIM127 (Expression relative to IgG4)	Binder
1.34 relative to IgG4	B1
1.48 relative to IgG4	B2
1.64 relative to IgG4	B3
1.74 relative to IgG4	B4
1.49 relative to IgG4	B5
1.05 relative to IgG4	B6

Biological target: T1, human Mac-1 (integrin αMβ2, CD11b/CD18)
Assay: flow cytometry, HEK293/Mac-1 cells, PBS (Mock), 10 µg/ml of this antibody; binding of reporter mAb KIM127 read
Protocol: as §1, §2

KIM127 (Expression relative to IgG4)	Binder
1.58 relative to IgG4	B1
1.13 relative to IgG4	B2
1.82 relative to IgG4	B3
1.92 relative to IgG4	B4
1.05 relative to IgG4	B5
0.99 relative to IgG4	B6

Biological target: T1, human Mac-1 (integrin αMβ2, CD11b/CD18)
Assay: flow cytometry, HEK293/Mac-1 cells; MFI in PBS over MFI in PBS/MnCl2
Protocol: as §1
(§4) TABLE II The anti-Mac-1 antibodies selectively bind to different statuses of human Mac-1. HEK293/Mac-1 cells (clone1-4) were incubated in PBS (Mock), or PBS/MnCl₂ (Mn²⁺). Binding of isotype control IgG, the CD11b specific mAb (ICRF44), the CD11b activation-sensing mAb (CBRM1/5), or the screened anti-Mac-1 antibody was detected using flow cytometry.

Mock/Mn^2+ Ratio	Binder
0.6	B1
0.36	B2
0.69	B3
0.72	B4
0.42	B5
0.9	B6

Biological target: T1, human Mac-1 (integrin αMβ2, CD11b/CD18)
Assay: flow cytometry, HEK293/Mac-1 cells (clone 1-4), PBS/MnCl2 (Mn2+)
Protocol: as §1, §4

Mn^2+ MFI	Binder
65800 MFI	B1
13000 MFI	B2
35200 MFI	B3
39400 MFI	B4
23900 MFI	B5
16600 MFI	B6

Biological target: T1, human Mac-1 (integrin αMβ2, CD11b/CD18)
Assay: flow cytometry, HEK293/Mac-1 cells, PBS/MnCl2 (Mn2+), 10 µg/ml of this antibody; binding of reporter mAb m24 read
Protocol: as §1, §3

m24 (Expression relative to IgG4)	Binder
2.11 relative to IgG4	B1
3.87 relative to IgG4	B2
4.37 relative to IgG4	B3
3.5 relative to IgG4	B4
2.36 relative to IgG4	B5
1.38 relative to IgG4	B6

Biological target: T1, human Mac-1 (integrin αMβ2, CD11b/CD18)
Assay: flow cytometry, HEK293/Mac-1 cells (clone 1-4), PBS (Mock)
Protocol: as §1, §4

Mock MFI	Binder
39600 MFI	B1
4630 MFI	B2
24400 MFI	B3
28500 MFI	B4
9940 MFI	B5
15000 MFI	B6
